Experimental findings from patent US20110189234A1 are described below.

The assay deals with Tail-T(ii)-MH chimeric adenovirus spike protein (adenovirus serotype 5; reovirus type 3 Dearing) (UniProt P11818).

Take “anti-His antibody (penta-His MAb; Qiagen)”: the transduction of 293HissFv.rec cells (luciferase activity) stood at 90%.
